Results: patent publication US20230134571A1 (INTERNATIONAL AIDS VACCINE INITIATIVE, published 2023)
Residue numbers refer to the chain shown, from its start.

B1: ePGDM13 (antibody, V domains shown)
VH: QAQLVQSGPEVRKPGTSVKVSCKNPGNTLTTYDLHWVRQVPGQGLQWMGWISHEGDKKVIVERFKAKVTIDWDRSTNTAYLQLSGLTSEDTAVYYCAKGSKHRLRDYALYDEDGALNWAVDVDYLANLEFWGQGTAVTVSS
VL: DIVLTQSPLSLSVTPGESASISCKSSHSLQHGDRNNYLAWYVQKPGRSPQLLLDLASERASGVPDRFSGSGSEKDFTLKISRVETEDVGTYYCMQGRESPWTFGQGTKVDIK
B2: PGDM1400 (antibody, V domains shown)
VH: B1 VH with A2V, Q3H, V5T, N24A, T30K, Q39S, E89G, E112D, A126S
VL: B1 VL with I2F, L9H, Q30I, L53I, D54Y, E58S, E73D

What follows are binders tested against HIV Env of isolate T257-31 (clade AG) (HIV) (assay: cell-based or functional assay).

Point of comparison: B1, “IC50 (µg/ml) with constrains” value 0.02 µg/mL. Against it:
- B2 — 6.9-fold higher, 0.138 µg/mL

Point of comparison: B1, “IC80 (µg/ml) with constrains” value 0.078 µg/mL. Against it:
- B2 — 7.1-fold higher, 0.552 µg/mL

These binders were tested against HIV Env of isolate ZM53M.PB12 (clade C) (HIV) (assay: cell-based or functional assay).

Point of comparison: B2, “IC50 (µg/ml) with constrains” value 0.009 µg/mL. Against it:
- B1 — 1.8-fold lower, 0.005 µg/mL

The binders below were run against HIV Env of isolate 620345.c01 (clade AE) (HIV) (assay: cell-based or functional assay).

B1 and B2 cannot be ordered by “IC50 (µg/ml) with constrains” value: over 100 µg/mL for the first, over 100 µg/mL for the second.

B1 and B2 cannot be ordered by “IC80 (µg/ml) with constrains” value: over 100 µg/mL for the first, over 100 µg/mL for the second.

Each binder was assayed against HIV Env of isolate T235-47 (clade AG) (HIV) (assay: cell-based or functional assay).

Point of comparison: B1, “IC50 (µg/ml) with constrains” value 0.005 µg/mL. Against it:
- B2 — 2.2-fold higher, 0.011 µg/mL

Point of comparison: B2, “IC80 (µg/ml) with constrains” value 0.044 µg/mL. Against it:
- B1 — 2.3-fold lower, 0.019 µg/mL

What follows are binders tested against HIV Env of isolate RHPA4259.7 (clade B) (HIV) (assay: cell-based or functional assay).

Point of comparison: B1, “IC50 (µg/ml) with constrains” value 0.358 µg/mL. Against it:
- B2 — within 1.5-fold, 0.491 µg/mL

Each binder was assayed against HIV Env of isolate 89-F1_2_25 (clade CD) (HIV) (assay: cell-based or functional assay).

Point of comparison: B1, “IC50 (µg/ml) with constrains” value 0.001 µg/mL. Against it:
- B2 — 3-fold higher, 0.003 µg/mL

These binders were tested against HIV Env of isolate 1006_11_C3_1601 (clade B) (HIV) (assay: cell-based or functional assay).

Point of comparison: B2, “IC50 (µg/ml) with constrains” value 1.86 µg/mL. Against it:
- B1 — 2.3-fold lower, 0.826 µg/mL

Each binder was assayed against HIV Env of isolate 0260.v5.c36 (clade A) (HIV) (assay: cell-based or functional assay).

Point of comparison: B1, “IC50 (µg/ml) with constrains” value 0.025 µg/mL. Against it:
- B2 — within 1.5-fold, 0.035 µg/mL

Point of comparison: B1, “IC80 (µg/ml) with constrains” value 0.098 µg/mL. Against it:
- B2 — within 1.5-fold, 0.14 µg/mL

Each binder was assayed against HIV Env of isolate ZM233M.PB6 (clade C) (HIV) (assay: cell-based or functional assay).

Point of comparison: B1, “IC50 (µg/ml) with constrains” value 0.001 µg/mL. Against it:
- B2 — 2-fold higher, 0.002 µg/mL

The binders below were run against HIV Env of isolate BJOX015000.11.5 (clade AE) (HIV) (assay: cell-based or functional assay).

Point of comparison: B1, “IC50 (µg/ml) with constrains” value 1.72 µg/mL. Against it:
- B2 — 1.6-fold lower, 1.05 µg/mL

Point of comparison: B2, “IC80 (µg/ml) with constrains” value 4.21 µg/mL. Against it:
- B1 — 1.6-fold higher, 6.86 µg/mL

The binders below were run against HIV Env of isolate QH0692.42 (clade B) (HIV) (assay: cell-based or functional assay).

B1 and B2 cannot be ordered by “IC50 (µg/ml) with constrains” value: over 100 µg/mL for the first, over 100 µg/mL for the second.

Each binder was assayed against HIV Env of isolate C3347.c11 (clade AE) (HIV) (assay: cell-based or functional assay).

Point of comparison: B1, “IC50 (µg/ml) with constrains” value 0.009 µg/mL. Against it:
- B2 — 1.7-fold higher, 0.015 µg/mL

Point of comparison: B1, “IC80 (µg/ml) with constrains” value 0.037 µg/mL. Against it:
- B2 — 1.6-fold higher, 0.061 µg/mL

The binders below were run against HIV Env of isolate 928-28 (clade AG) (HIV) (assay: cell-based or functional assay).

Point of comparison: B1, “IC50 (µg/ml) with constrains” value 0.019 µg/mL. Against it:
- B2 — 3.6-fold higher, 0.069 µg/mL

Point of comparison: B2, “IC80 (µg/ml) with constrains” value 0.277 µg/mL. Against it:
- B1 — 3.6-fold lower, 0.077 µg/mL

The binders below were run against HIV Env of isolate 3103.v3.c10 (clade ACD) (HIV) (assay: cell-based or functional assay).

Point of comparison: B1, “IC50 (µg/ml) with constrains” value 0.09 µg/mL. Against it:
- B2 — 2.5-fold higher, 0.223 µg/mL

Point of comparison: B2, “IC80 (µg/ml) with constrains” value 0.892 µg/mL. Against it:
- B1 — 2.5-fold lower, 0.36 µg/mL

What follows are binders tested against HIV Env of isolate SC05_8C11_2344 (clade B) (HIV) (assay: cell-based or functional assay).

Point of comparison: B2, “IC50 (µg/ml) with constrains” value 4.46 µg/mL. Against it:
- B1 — 1.9-fold lower, 2.36 µg/mL

The binders below were run against HIV Env of isolate ZM249M.PL1 (clade C) (HIV) (assay: cell-based or functional assay).

Point of comparison: B2, “IC50 (µg/ml) with constrains” value 0.025 µg/mL. Against it:
- B1 — 1.8-fold lower, 0.014 µg/mL

These binders were tested against HIV Env of isolate HIV-16055-2.3 (clade C) (HIV) (assay: cell-based or functional assay).

Point of comparison: B2, “IC50 (µg/ml) with constrains” value 0.003 µg/mL. Against it:
- B1 — the same, 0.003 µg/mL

Each binder was assayed against HIV Env of isolate 246FC1G (clade C) (HIV) (assay: cell-based or functional assay).

B1 and B2 cannot be ordered by “IC50 (µg/ml) with constrains” value: over 100 µg/mL for the first, over 100 µg/mL for the second.

The binders below were run against HIV Env of isolate CNE5 (clade AE) (HIV) (assay: cell-based or functional assay).

Point of comparison: B2, “IC50 (µg/ml) with constrains” value 0.001 µg/mL. Against it:
- B1 — the same, 0.001 µg/mL

Point of comparison: B2, “IC80 (µg/ml) with constrains” value 0.003 µg/mL. Against it:
- B1 — within 1.5-fold, 0.004 µg/mL

The binders below were run against HIV Env of isolate Ce703010054_2A2 (clade C) (HIV) (assay: cell-based or functional assay).

Point of comparison: B1, “IC50 (µg/ml) with constrains” value 0.008 µg/mL. Against it:
- B2 — 1.8-fold higher, 0.014 µg/mL

The binders below were run against HIV Env of isolate BJOX010000.06.2 (clade AE) (HIV) (assay: cell-based or functional assay).

Point of comparison: B1, “IC50 (µg/ml) with constrains” value 0.979 µg/mL. Against it:
- B2 — within 1.5-fold, 0.871 µg/mL

Point of comparison: B1, “IC80 (µg/ml) with constrains” value 3.92 µg/mL. Against it:
- B2 — within 1.5-fold, 3.48 µg/mL

Each binder was assayed against HIV Env of isolate C1080.c03 (clade AE) (HIV) (assay: cell-based or functional assay).

Point of comparison: B2, “IC50 (µg/ml) with constrains” value 0.001 µg/mL. Against it:
- B1 — the same, 0.001 µg/mL

Point of comparison: B1, “IC80 (µg/ml) with constrains” value 0.003 µg/mL. Against it:
- B2 — 1.7-fold higher, 0.005 µg/mL

Each binder was assayed against HIV Env of isolate T211-9 (clade AG) (HIV) (assay: cell-based or functional assay).

Point of comparison: B2, “IC50 (µg/ml) with constrains” value 0.058 µg/mL. Against it:
- B1 — 2.1-fold lower, 0.028 µg/mL

Point of comparison: B1, “IC80 (µg/ml) with constrains” value 0.113 µg/mL. Against it:
- B2 — 2.1-fold higher, 0.234 µg/mL

These binders were tested against HIV Env of isolate CNE52 (clade BC) (HIV) (assay: cell-based or functional assay).

Point of comparison: B1, “IC50 (µg/ml) with constrains” value 2.83 µg/mL. Against it:
- B2 — higher, > 100 µg/mL

The binders below were run against HIV Env of isolate Q259.d2.17 (clade A) (HIV) (assay: cell-based or functional assay).

Point of comparison: B2, “IC50 (µg/ml) with constrains” value 0.068 µg/mL. Against it:
- B1 — 1.8-fold lower, 0.037 µg/mL

Point of comparison: B1, “IC80 (µg/ml) with constrains” value 0.15 µg/mL. Against it:
- B2 — 1.8-fold higher, 0.271 µg/mL

These binders were tested against HIV Env of isolate ZM109F.PB4 (clade C) (HIV) (assay: cell-based or functional assay).

Point of comparison: B1, “IC50 (µg/ml) with constrains” value 0.049 µg/mL. Against it:
- B2 — 2-fold higher, 0.098 µg/mL

These binders were tested against HIV Env of isolate T255-34 (clade AG) (HIV) (assay: cell-based or functional assay).

Point of comparison: B2, “IC50 (µg/ml) with constrains” value 0.046 µg/mL. Against it:
- B1 — 6.6-fold lower, 0.007 µg/mL

Point of comparison: B2, “IC80 (µg/ml) with constrains” value 0.182 µg/mL. Against it:
- B1 — 6.3-fold lower, 0.029 µg/mL

What follows are binders tested against HIV Env of isolate ZM135M.PL10a (clade C) (HIV) (assay: cell-based or functional assay).

B1 and B2 cannot be ordered by “IC50 (µg/ml) with constrains” value: over 100 µg/mL for the first, over 100 µg/mL for the second.

What follows are binders tested against HIV Env of isolate 6480.v4.c25 (clade CD) (HIV) (assay: cell-based or functional assay).

B1 and B2 cannot be ordered by “IC50 (µg/ml) with constrains” value: over 100 µg/mL for the first, over 100 µg/mL for the second.

What follows are binders tested against HIV Env of isolate ZM214M.PL15 (clade C) (HIV) (assay: cell-based or functional assay).

B1 and B2 cannot be ordered by “IC50 (µg/ml) with constrains” value: over 100 µg/mL for the first, over 100 µg/mL for the second.
